Assay results reported in the supplement of paper PMC7877785.
± gives the uncertainty stated by the source.

Assay: self-splicing fitness, log relative to wild type (ln ratio); higher = more splicing; Tetrahymena group I intron in knt gene, E. coli kanamycin selection, DiMSum; sequences stand for … in CUCUCU…GGAGGGAAAAGUUAUCAGGCAUGCACCUGGUAGCUAGUCUUUAAACCAAUAGAUUGCAUCGGUUUAAAAGGCAAGACCGUCAAAUUGCGGGAAAGGGGUCAACAGCCGUUCAGUACCAAGUCUCAGGGGAAACUUUGAGAUGGCCUUGCAAAGGGUAUGGUAAUAAGCUGACGGACAUGGUCCUAACCACGCAGCCAAGUCCUAAGUCAACAGAUCUUCUGUUGAUAUGGAUGCAGUUCACAGACUAAAUGUCGGUCGGGGAAGAUGUAUUCUUCUCAUAAGAUAUAGUCGGACCUCUCCUUAAUGGGAGCUAGCGGAUGAAGUGAUGCAACACUGGAGCCGCUGGGAACUAAUUUGUAUGCGAAAGUAUAUUGAUUAGUUUUGGAGUACUCGUGGUCG
Method in brief: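 DiMSum derived fitness as the error-weighted combination of fold changes across replicates, kanamycin versus no kanamycin, normalised to wild type. E. coli BL21(DE3) held the library, which randomised all eight P1ex-region intron nucleotides within the knt kanamycin-resistance gene on pET-22b(+). Six replicate transformations grew overnight at 37°C or 30°C on LB agar with or without 25 μg/mL kanamycin, also containing 100 μg/mL carbenicillin, 50 μM IPTG and 0.2% rhamnose, and pooled colonies were amplicon-sequenced on an Illumina HiSeq 2500.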

AACUAGCAAUAUUACGGCCC
self-splicing fitness (ln) (30 °C): -1.6 ± 0.17
self-splicing fitness (ln) (37 °C): -0.325 ± 0.24

GUGUAGCAAUAUUACGCGGA
self-splicing fitness (ln) (37 °C): -1.54 ± 0.36

GAGGAGCAAUAUUACGGGCU
self-splicing fitness (ln) (30 °C): -2.72 ± 0.48
self-splicing fitness (ln) (37 °C): -1.83 ± 0.29

GUACAGCAAUAUUACGGCUU
self-splicing fitness (ln) (30 °C): -0.512 ± 0.08
self-splicing fitness (ln) (37 °C): 0.22 ± 0.09

UGUCAGCAAUAUUACGUUUU
self-splicing fitness (ln) (30 °C): -3.83 ± 0.2
self-splicing fitness (ln) (37 °C): -2.23 ± 0.14

ACGGAGCAAUAUUACGUUAU
self-splicing fitness (ln) (37 °C): -2.94 ± 0.23

AGUAAGCAAUAUUACGACGG
self-splicing fitness (ln) (30 °C): -3.42 ± 0.27
self-splicing fitness (ln) (37 °C): -1.94 ± 0.2

CUGGAGCAAUAUUACGGUAC
self-splicing fitness (ln) (30 °C): -2.41 ± 0.18
self-splicing fitness (ln) (37 °C): -2.84 ± 0.27

CGCCAGCAAUAUUACGGACC
self-splicing fitness (ln) (30 °C): -1.3 ± 0.15
self-splicing fitness (ln) (37 °C): -0.361 ± 0.18

AUAUAGCAAUAUUACGGGGU
self-splicing fitness (ln) (30 °C): -2.23 ± 0.18
self-splicing fitness (ln) (37 °C): -2.25 ± 0.29

AUGGAGCAAUAUUACGAACG
self-splicing fitness (ln) (30 °C): -2.21 ± 0.25
self-splicing fitness (ln) (37 °C): -2.35 ± 0.5

CUGAAGCAAUAUUACGGGGA
self-splicing fitness (ln) (30 °C): -3.06 ± 0.43
self-splicing fitness (ln) (37 °C): -2.36 ± 0.37

UGAAAGCAAUAUUACGCUCA
self-splicing fitness (ln) (30 °C): -1 ± 0.19
self-splicing fitness (ln) (37 °C): -0.0203 ± 0.25

UGAGAGCAAUAUUACGCGGC
self-splicing fitness (ln) (30 °C): -3.04 ± 0.46
self-splicing fitness (ln) (37 °C): -1.58 ± 0.44

GGCUAGCAAUAUUACGAACA
self-splicing fitness (ln) (30 °C): -1.01 ± 0.15
self-splicing fitness (ln) (37 °C): -0.682 ± 0.15

ACGAAGCAAUAUUACGAAUG
self-splicing fitness (ln) (30 °C): -1.51 ± 0.11
self-splicing fitness (ln) (37 °C): -2.67 ± 0.18

CCUUAGCAAUAUUACGACUC
self-splicing fitness (ln) (30 °C): -3.05 ± 0.15
self-splicing fitness (ln) (37 °C): -2.49 ± 0.2

UGUAAGCAAUAUUACGUGGG
self-splicing fitness (ln) (30 °C): -3.6 ± 0.19
self-splicing fitness (ln) (37 °C): -2.42 ± 0.22

CUAGAGCAAUAUUACGUUCU
self-splicing fitness (ln) (30 °C): -3.79 ± 0.21
self-splicing fitness (ln) (37 °C): -2.21 ± 0.22

UACUAGCAAUAUUACGUUAG
self-splicing fitness (ln) (30 °C): -3.54 ± 0.19
self-splicing fitness (ln) (37 °C): -2.66 ± 0.23

ACAUAGCAAUAUUACGCAGC
self-splicing fitness (ln) (37 °C): -3.15 ± 0.31

AAGGAGCAAUAUUACGGUCC
self-splicing fitness (ln) (30 °C): -2.13 ± 0.18
self-splicing fitness (ln) (37 °C): -2.03 ± 0.27

GCGUAGCAAUAUUACGCAGC
self-splicing fitness (ln) (30 °C): -3.61 ± 0.47
self-splicing fitness (ln) (37 °C): -2.75 ± 0.38

ACUUAGCAAUAUUACGACAU
self-splicing fitness (ln) (30 °C): -0.756 ± 0.012
self-splicing fitness (ln) (37 °C): -0.251 ± 0.032

AAAUAGCAAUAUUACGCAGC
self-splicing fitness (ln) (30 °C): -3.27 ± 0.33
self-splicing fitness (ln) (37 °C): -0.974 ± 0.25

CAAUAGCAAUAUUACGGACG
self-splicing fitness (ln) (30 °C): -0.294 ± 0.058
self-splicing fitness (ln) (37 °C): 0.146 ± 0.075

UGGCAGCAAUAUUACGCUGC
self-splicing fitness (ln) (30 °C): -2.98 ± 0.25

GCGCAGCAAUAUUACGCGCC
self-splicing fitness (ln) (30 °C): -3.43 ± 0.26
self-splicing fitness (ln) (37 °C): -2.41 ± 0.39

CUCCAGCAAUAUUACGCAAA
self-splicing fitness (ln) (30 °C): -3.21 ± 0.21
self-splicing fitness (ln) (37 °C): -2.68 ± 0.26

UUCGAGCAAUAUUACGUCGU
self-splicing fitness (ln) (30 °C): -3.29 ± 0.33
self-splicing fitness (ln) (37 °C): -1.24 ± 0.21

AGUAAGCAAUAUUACGCCAU
self-splicing fitness (ln) (30 °C): -2.81 ± 0.2
self-splicing fitness (ln) (37 °C): -1.93 ± 0.22

CACAAGCAAUAUUACGGGGG
self-splicing fitness (ln) (30 °C): -3.12 ± 0.11
self-splicing fitness (ln) (37 °C): -2.1 ± 0.11

UACGAGCAAUAUUACGAUCC
self-splicing fitness (ln) (30 °C): -3.23 ± 0.33

AAGAAGCAAUAUUACGAAAG
self-splicing fitness (ln) (30 °C): -3.5 ± 0.21
self-splicing fitness (ln) (37 °C): -1.69 ± 0.13

CUACAGCAAUAUUACGGUUC
self-splicing fitness (ln) (30 °C): -2.93 ± 0.089
self-splicing fitness (ln) (37 °C): -1.23 ± 0.1

UUUCAGCAAUAUUACGUAGA
self-splicing fitness (ln) (30 °C): -1.72 ± 0.076
self-splicing fitness (ln) (37 °C): -0.283 ± 0.092

UGGCAGCAAUAUUACGGACA
self-splicing fitness (ln) (30 °C): 0.0855 ± 0.098
self-splicing fitness (ln) (37 °C): 0.0548 ± 0.14

AAAUAGCAAUAUUACGGUGU
self-splicing fitness (ln) (30 °C): -2.83 ± 0.13
self-splicing fitness (ln) (37 °C): -2.05 ± 0.15

AAUGAGCAAUAUUACGCGCC
self-splicing fitness (ln) (30 °C): -3.19 ± 0.28
self-splicing fitness (ln) (37 °C): -2.73 ± 0.44

GUCGAGCAAUAUUACGUGUU
self-splicing fitness (ln) (30 °C): -4.22 ± 0.28
self-splicing fitness (ln) (37 °C): -2.09 ± 0.25

GGCCAGCAAUAUUACGCUUA
self-splicing fitness (ln) (30 °C): -0.822 ± 0.15
self-splicing fitness (ln) (37 °C): 0.139 ± 0.17

UAGGAGCAAUAUUACGGGAU
self-splicing fitness (ln) (30 °C): -3.21 ± 0.35
self-splicing fitness (ln) (37 °C): -2.27 ± 0.37

CAAGAGCAAUAUUACGGCUC
self-splicing fitness (ln) (30 °C): -3.78 ± 0.24
self-splicing fitness (ln) (37 °C): -2.27 ± 0.32

CUUCAGCAAUAUUACGGAGC
self-splicing fitness (ln) (30 °C): -3.04 ± 0.29
self-splicing fitness (ln) (37 °C): -2.65 ± 0.25

ACUUAGCAAUAUUACGGGUA
self-splicing fitness (ln) (30 °C): -1.14 ± 0.11
self-splicing fitness (ln) (37 °C): -1.54 ± 0.14

UGUGAGCAAUAUUACGUAAU
self-splicing fitness (ln) (37 °C): -2.2 ± 0.27

UUUAAGCAAUAUUACGUGAA
self-splicing fitness (ln) (30 °C): -0.503 ± 0.093
self-splicing fitness (ln) (37 °C): -0.616 ± 0.095

GCUCAGCAAUAUUACGCUUC
self-splicing fitness (ln) (30 °C): -1.9 ± 0.077
self-splicing fitness (ln) (37 °C): -0.102 ± 0.081

CCAAAGCAAUAUUACGACGC
self-splicing fitness (ln) (30 °C): -3.71 ± 0.35

CAAGAGCAAUAUUACGAGUG
self-splicing fitness (ln) (30 °C): -1.46 ± 0.089
self-splicing fitness (ln) (37 °C): -1.23 ± 0.12

UGCGAGCAAUAUUACGCUAA
self-splicing fitness (ln) (30 °C): -1.92 ± 0.21
self-splicing fitness (ln) (37 °C): -2.48 ± 0.26

AGGGAGCAAUAUUACGGGAA
self-splicing fitness (ln) (30 °C): -1.37 ± 0.38
self-splicing fitness (ln) (37 °C): -2.58 ± 0.37

GUAAAGCAAUAUUACGGCUA
self-splicing fitness (ln) (30 °C): 0.4 ± 0.052
self-splicing fitness (ln) (37 °C): 0.518 ± 0.075

AAGUAGCAAUAUUACGAUCG
self-splicing fitness (ln) (30 °C): -1.43 ± 0.1
self-splicing fitness (ln) (37 °C): -0.453 ± 0.15

UUAUAGCAAUAUUACGGGUA
self-splicing fitness (ln) (30 °C): -2.85 ± 0.2
self-splicing fitness (ln) (37 °C): -1.65 ± 0.19

GCUGAGCAAUAUUACGUUUG
self-splicing fitness (ln) (30 °C): -2.85 ± 0.17
self-splicing fitness (ln) (37 °C): -2.76 ± 0.25

ACGAAGCAAUAUUACGUCGG
self-splicing fitness (ln) (30 °C): -1.67 ± 0.1
self-splicing fitness (ln) (37 °C): -1.65 ± 0.11

CAUUAGCAAUAUUACGGCUC
self-splicing fitness (ln) (30 °C): -3.78 ± 0.28
self-splicing fitness (ln) (37 °C): -1.39 ± 0.18

GUGAAGCAAUAUUACGUGGU
self-splicing fitness (ln) (30 °C): -4.17 ± 0.24
self-splicing fitness (ln) (37 °C): -1.61 ± 0.14

UCCCAGCAAUAUUACGCCCU
self-splicing fitness (ln) (30 °C): -2.07 ± 0.15
self-splicing fitness (ln) (37 °C): -1.03 ± 0.21

GACCAGCAAUAUUACGGCUU
self-splicing fitness (ln) (30 °C): -0.0255 ± 0.055
self-splicing fitness (ln) (37 °C): -0.293 ± 0.07

ACUGAGCAAUAUUACGACCG
self-splicing fitness (ln) (30 °C): -1.3 ± 0.17
self-splicing fitness (ln) (37 °C): -0.981 ± 0.23

UAGGAGCAAUAUUACGCUCG
self-splicing fitness (ln) (30 °C): -1.49 ± 0.21
self-splicing fitness (ln) (37 °C): 0.196 ± 0.24

AAGGAGCAAUAUUACGCGAU
self-splicing fitness (ln) (30 °C): -2.06 ± 0.15
self-splicing fitness (ln) (37 °C): -2.29 ± 0.28

GAUGAGCAAUAUUACGCUUG
self-splicing fitness (ln) (30 °C): -3.15 ± 0.39
self-splicing fitness (ln) (37 °C): -1.07 ± 0.3

CCCCAGCAAUAUUACGAGAC
self-splicing fitness (ln) (30 °C): -3.9 ± 0.18
self-splicing fitness (ln) (37 °C): -2.37 ± 0.21

GAGAAGCAAUAUUACGCGUC
self-splicing fitness (ln) (30 °C): -3.46 ± 0.34
self-splicing fitness (ln) (37 °C): -2.31 ± 0.33

AGGCAGCAAUAUUACGCCUA
self-splicing fitness (ln) (30 °C): -1.98 ± 0.23
self-splicing fitness (ln) (37 °C): -0.0372 ± 0.14

UUCCAGCAAUAUUACGCCUU
self-splicing fitness (ln) (30 °C): -2.28 ± 0.1
self-splicing fitness (ln) (37 °C): -0.957 ± 0.096

AACGAGCAAUAUUACGAGUC
self-splicing fitness (ln) (37 °C): -2.63 ± 0.44

GGUAAGCAAUAUUACGUCAU
self-splicing fitness (ln) (30 °C): -0.725 ± 0.14
self-splicing fitness (ln) (37 °C): 0.713 ± 0.2

CGCCAGCAAUAUUACGAGUC
self-splicing fitness (ln) (30 °C): -3.11 ± 0.28
self-splicing fitness (ln) (37 °C): -1.56 ± 0.24

AUAAAGCAAUAUUACGGCCA
self-splicing fitness (ln) (30 °C): 0.232 ± 0.11
self-splicing fitness (ln) (37 °C): 0.15 ± 0.13

GCUGAGCAAUAUUACGGUUU
self-splicing fitness (ln) (30 °C): -1.86 ± 0.075
self-splicing fitness (ln) (37 °C): -1.25 ± 0.095

ACACAGCAAUAUUACGCCGA
self-splicing fitness (ln) (30 °C): -1.15 ± 0.08
self-splicing fitness (ln) (37 °C): -1.34 ± 0.094

UAAAAGCAAUAUUACGCCCU
self-splicing fitness (ln) (30 °C): -0.622 ± 0.095
self-splicing fitness (ln) (37 °C): 0.457 ± 0.15

UAGUAGCAAUAUUACGAGUC
self-splicing fitness (ln) (30 °C): -4.06 ± 0.33
self-splicing fitness (ln) (37 °C): -2.03 ± 0.23
